“And” between values parts separate entries of the source, which are not always exact repeats. Equal values may be shown once.

The target of experiment [1] is human mesothelin (recombinant, soluble) (human) (UniProt Q13421). The experiment in a line: SPR BIAcore, captured mAb, mesothelin analyte.
Experiment [2] has the same target. Description: SPR BIAcore, parental mAb captured, mesothelin analyte.

human mesothelin (recombinant, soluble) (human), sequence (Q13421 other isoform, or with tags, fused parts or gaps limits assumed): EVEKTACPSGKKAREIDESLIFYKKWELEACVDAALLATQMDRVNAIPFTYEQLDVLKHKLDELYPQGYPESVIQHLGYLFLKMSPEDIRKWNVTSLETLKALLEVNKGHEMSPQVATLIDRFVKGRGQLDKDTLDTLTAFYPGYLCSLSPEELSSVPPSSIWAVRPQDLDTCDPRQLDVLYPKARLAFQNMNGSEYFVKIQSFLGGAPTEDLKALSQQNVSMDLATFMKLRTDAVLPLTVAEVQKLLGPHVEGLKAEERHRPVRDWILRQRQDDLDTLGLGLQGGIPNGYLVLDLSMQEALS

B1: 346C6 (rabbit-human chimeric anti-human mesothelin antibody) (antibody, from another filing, V domains shown)
VH: QSVEESGGRLVKPDESLTLTCTASGFSLSSYAMIWVRQAPGEGLEWIGTISTGGITYYASWAKGRFTISKTSTTVDLKITSPTTEDTATYFCARGGYAASSAYYLPYYFDLWGQGTLVTVSS
VL: AAVLTQTPSPVSAAVGGTVTISCQSSQSVYNNNNLAWFQQKPGQPPKLLIYLASTLASGVPSRFSGSGSGTQFTLTISGVQCDDAATYYCLGGCDDDADTFAFGGGTEVVVKR
In the case of B1, in experiment [1], the equilibrium dissociation constant (Kd) is 0.706 nM and 0.529 nM; the koff was 0.000481 s⁻¹ and 0.000609 s⁻¹; the kon is 682000 M⁻¹ s⁻¹ and 1.15e+06 M⁻¹ s⁻¹. Besides, in experiment [2], the dissociation constant (Kd) worked out at 1.4 nM, the koff is 0.00049 s⁻¹ and the kon came to 380000 M⁻¹ s⁻¹.

B2: 111B10 (rabbit-human chimeric anti-human mesothelin antibody) (antibody, from another filing, V domains shown)
VH: QSVEESGGRLVTPGTPLTLTCTVSGFSLNNYAMSWVRQAPGKGLEWIGSISTGGLAFYANWAKGRFTISRTSTTVDLKMTSLTTEDTATYFCGRNGGGSYIFYYFDLWGQGTLVTVSS
VL: AFELTQTPSSVEAAVGGTITIKCQASQSISSYLSWYQQKPGQPPKLLIYSASTLASGVSSRFKGSGSGTEYTLTISDLECADAATYFCQSYYDIGTSTFGGGTEVVVKR
B2: in experiment [2], the Kd amounted to 6.3 nM, the koff amounted to 0.0039 s⁻¹ and the kon amounted to 650000 M⁻¹ s⁻¹.

B3: 33O11 zu (humanized anti-human mesothelin antibody) (antibody, from another filing, V domains shown)
VH: EVQLVESGGGLVQPGGSLRLSCAASGISLSSDAISWVRQAPGKGLEYIGIINGGGNTYYASWAKGRFTISRHNSKNTLYLQMNSLRAEDTAVYYCARGIQHGGGNSDYYYYGMDLWGQGTLVTVSS
VL: DIQMTQSPSSLSASVGDRVTITCQASQSISSVLSWYQQKPGKAPKLLIYLASTLASGVPSRFSGSGSGTDFTLTISSLQCEDIATYYCQTNYGTSSSNYGFAFGGGTKVEIKR
In the case of B3, in experiment [2], the Kd was 3.4 nM, the koff was found to be 0.00065 s⁻¹ and the kon worked out at 220000 M⁻¹ s⁻¹.

B4: 201C15 (rabbit-human chimeric anti-human mesothelin antibody) (antibody, from another filing, V domains shown)
VH: QSVKESGGRLVTPGTPLTLTCTVSGIDLSSYAMGWFRQAPGKGLEYIGTINIGGRVYYASWAKGRFTISRTSTTVDLKAPSLTAEDTATYFCARYYNGGSYDIWGPGTLVTVSL
VL: DVVMTQTPASASEPVGGTVTIKCQASESIYRVLAWYQQKPGQPPKLLIYDTSTLASGAPSRFKGSGYGTEFTLTISGVQCEDAATYYCQGGYYADSYGIAFGGGTEVVVKR
On to B4, for which, in experiment [1], the Kd is 0.47 nM and 0.131 nM; the koff is 0.000129 s⁻¹ and 0.000345 s⁻¹. Besides, in experiment [2], the Kd was found to be 1.1 nM, the koff turned out to be 0.00026 s⁻¹ and the kon stood at 240000 M⁻¹ s⁻¹.

As a reminder, the Kd is the constant that tells how readily two partners part at equilibrium. As a reminder, the koff is the rate constant with which the complex falls apart. A word on the kon: it is a measure of how fast the partners come together.
